PMC2683335 (The Journal of biological chemistry, 2008)

Tests used:
[1] = biological target: MthMCM RR137,160AA double mutant (Methanothermobacter thermautotrophicus); test: AUC
[2] = biological target: MthMCM R137A mutant (Methanothermobacter thermautotrophicus); test: negative-stain electron microscopy
[3] = biological target: the molecule itself; test: SEC + other: sucrose gradient sedimentation
[4] = biological target: the molecule itself; test: AUC

“MthMCM RR137,160AA double mutant (natural protein)” gave a stoichiometry N [1] of 7 subunits.

Molecule MthMCM R137A mutant (natural protein) has a stoichiometry N [2] of 14 subunits.

B1: Methanothermobacter thermautotrophicus MCM (MthMCM), wild type (natural protein, UniProt O27798 1-666, looked up)
chain: MMKTVDKSKTLTKFEEFFSLQDYKDRVFEAIEKYPNVRSIEVDYLDLEMFDPDLADLLIEKPDDVIRAAQQAIRNIDRLRKNVDLNIRFSGISNVIPLRELRSKFIGKFVAVDGIVRKTDEIRPRIVKAVFECRGCMRHHAVTQSTNMITEPSLCSECGGRSFRLLQDESEFLDTQTLKLQEPLENLSGGEQPRQITVVLEDDLVDTLTPGDIVRVTGTLRTVRDERTKRFKNFIYGNYTEFLEQEFEELQISEEDEEKIKELAGDPNIYEKIIRSTAPSIHGYREVKEAIALQLFGGTGKELDDKTRLRGDIHILIVGDPGIGKSQMLKYVSKLAPRGIYTSGKGTSGVGLTAAAVRDEFGGWSLEAGALVLGDKGNVCVDELDKMREEDRSAIHEALEQQTISIAKAGIMATLNSRCSVLAAANPKFGRFDSYKSIAEQIDLPSTILSRFDLIFVVEDKPDEEKDRELARHILKTHKEDHMPFEIDPELLRKYIAYARKNVRPVLTDEAMQVLEDFYVSMRASAADEDSPVPITARQLEALVRLSEASAKIKLKEHVEAEDARKAIKLSQACLKQVGYDPETGKIDIDKVEGRTPKSERDKFRLLLELIKEYEDDYGGRAPTNILITEMMDRYNVSEEKVEELIRILKDKGAIFEPARGYLKIV
In the case of B1, the “stoichiometry N” value [3] is reported as 11.6 monomers and the “stoichiometry N” value [4] is reported as 12.2 subunits/complex.
